Experimental data published in patent US20090297535A1 (Ablynx, published 2009).
Read-outs that look alike come from different tables or passages of the source. One block for each binder: values may come before it.

Key:
recombinant human IL6 [1] = target: T1, recombinant human IL6 (human, UniProt P05231 30-212); experiment: SPR, Biacore 3000; IL6 amine-coupled on CM5 chip, periplasmic extract injected
T1 construct: Amine-coupled to a CM5 chip in the Biacore assay; used biotinylated in the Alphascreen assays; also called interleukin-6; biotinylated human IL6
Protocol: Off-rate analysis of Nanobodies binding to IL6 was done by surface plasmon resonance on a Biacore 3000 instrument. Recombinant human IL6 was covalently bound to a CM5 sensor chip via amine coupling at a density of ˜500 RU. Remaining reactive groups were inactivated. Periplasmic extracts prepared from E. coli cells expressing anti-IL6 Nanobodies were diluted 10 or 15-fold and injected for 4 min to allow for binding to IL6 immobilized on the chip. Buffer without Nanobody was sent over the chip for 30 min to allow for spontaneous dissociation of bound Nanobody. The dissociation phase was used to calculate the koff values for each individual Nanobody (table B-1).

recombinant human IL6 [2] = target: T1, recombinant human IL6; experiment: Alphascreen competition: Nanobody titrated against 3 nM biotinylated human IL6; blocked partner IL6R (1 nM) captured on acceptor beads coated with anti-IL6R MAb BN-12; streptavidin donor beads; readout cps
Protocol: Purified samples of Nanobodies PMP6B6, PMP7G5, PMP7G9 and PMP7G4 were analyzed in Alphascreen for their ability to inhibit the interaction between IL6 and IL6R. In this assay, various concentrations of anti-IL6 Nanobodies ranging from 1 uM to 10 pM were incubated with 3 nM biotinylated human IL6 for 15 min in a 384-wells plate. Subsequently a mixture of IL6R (1 nM) and acceptor beads (20 ug/ml) coated with anti-IL6R MAb BN-12 (Diaclone) were added and incubated for 30 min. Finally, streptavidin coated donor beads (20 ug/ml) were added. After 1 hour of incubation plates were read on the Envison Alphascreen reader (PerkinElmer). All experiments were performed in duplicate.

recombinant human IL6 [3] = target: T1, recombinant human IL6; experiment: cell-based or functional assay
recombinant human IL6 [4] = target: T1, recombinant human IL6; experiment: cell-based or functional assay; remark: listed apart in the source

B1: PMP7G9 (VHH)
VHH: QVQLVESGGGLVQPGGSLRLSCAASGFSLDYYGVGWFRQAPGKEREGVSCISSSDGDTYYADSVKGRFTISRDNAKNTVYLQMNSLKPEDTAVYYCATDLSDYGVCSRWPSPYDYWGQGTQVTVSS
notes: Monovalent Nanobody
koff (recombinant human IL6 [1]): 0.00287 s⁻¹
IC50 (recombinant human IL6 [2]): 3.4 nM
IC50, inhibition of proliferation of the murine hybridoma cell line B9 (B9 assay, cell proliferation normalized) (recombinant human IL6 [3]): 0.385 nM

B2: PMP10C4 (VHH)
VHH: AVQLVDSGGGLVQAGGSLRLSCAASGRSFSNYHMVWFRQAPGKEREFVAAASGSTSSTYYADSVKGRFTISRDNAKNTVYLQMNSLKPEDTAVYYCAAVAGLLLPRVAEGMDYWGKGTLVTVSS
notes: Monovalent Nanobody
IC50, inhibition of proliferation of the murine hybridoma cell line B9 (B9 assay, cell proliferation normalized) (recombinant human IL6 [4]): 0.961 nM
koff (recombinant human IL6 [1]): 0.00082 s⁻¹

B3: PMP17B11 (VHH)
VHH: QVQLVESGGGLVQAGGSLRLSCAASGPTFSTYAMGWFRQAPGKEREFVAAISWSGANTYYADSVKGRFTISRDNAKNTVYLRMNSLKPEDTAAYYCAASAIIEGFQDSIVIFSEAGYDYWGQGTQVTVSS
IC50, inhibition of proliferation of the murine hybridoma cell line B9 (B9 assay, cell proliferation normalized) (recombinant human IL6 [4]): 0.702 nM
koff (recombinant human IL6 [1]): 0.00133 s⁻¹

B7: PMP6B6 (VHH)
VHH: QVQLVESAGGLVQPGGSLRLSCAASGIIFSINAMGWYRQAPGKRRELVADIMPYGSTEYADSVKGRFTISRDNAKNTVYLQMNSLKPEDTAVYYCHSYDPRGDDYWGQGTQVTVSS
notes: Monovalent Nanobody
koff (recombinant human IL6 [1]): 0.000433 s⁻¹
IC50 (recombinant human IL6 [2]): 2 nM
IC50, inhibition of proliferation of the murine hybridoma cell line B9 (B9 assay, cell proliferation normalized) (recombinant human IL6 [3]): 0.003 nM

B8: PMP7G5 (VHH)
VHH: QVKLEESGGGLVQPGGSLRLSCAASGSISRFNIMGWYRQAPGKQRELVADITNGGTTMYADSVKGRFTISRDNTKNTVYLQMNSLKPEDTAVYYCHTYYPTTGFDDWGQGAQVTVSS
notes: Monovalent Nanobody
koff (recombinant human IL6 [1]): 0.000412 s⁻¹
IC50 (recombinant human IL6 [2]): 6.1 nM
IC50, inhibition of proliferation of the murine hybridoma cell line B9 (B9 assay, cell proliferation normalized) (recombinant human IL6 [3]): 0.017 nM

B10: PMP17C4 (VHH)
VHH: AVQLVDSGGGLVQAGDSLRLSCAASGRTFSNYAMAWFRQAPGKEREFVAVISYAGGRTYYADSVKGRFTISRDNAKNTVYLQMNSLKPEDTAVYYCAAVDSPLIATHPRGYDYWGQGTQVTVSS
notes: Monovalent Nanobody
IC50, inhibition of proliferation of the murine hybridoma cell line B9 (B9 assay, cell proliferation normalized) (recombinant human IL6 [4]): 0.064 nM
koff (recombinant human IL6 [1]): 0.00137 s⁻¹

Next, values leading:

IC50, inhibition of proliferation of the murine hybridoma cell line B9 (B9 assay, cell proliferation normalized) (recombinant human IL6 [4]): 0.332 nM
koff (recombinant human IL6 [1]): 0.00104 s⁻¹
B4: PMP10A6 (VHH)
VHH: QVQLVESGGGLVQAGGSLRLSCASSGRTFSSYVMGWFRQTPGKEREFVSTINWSGSNGYYADSVKGRFTISRDNAKNTVYLQMNNLKPEDTAVYYCAASAGGFLVPRVGQGYDYWGQGTQVTVSS
notes: Monovalent Nanobody

koff (recombinant human IL6 [1]): 0.00027 s⁻¹
IC50, inhibition of proliferation of the murine hybridoma cell line B9 (B9 assay, cell proliferation normalized) (recombinant human IL6 [3]): 0.028 nM
B5: PMP6B12 (VHH)
VHH: AVQLVESGGGLVQPGGSLRLSCAASGFTLAYYAIGWFRQAPGKEREGVSCISSSVGTTYYSDSVKGRFTISRDNAKNTVYLQMNSLKPEDTAVYYCVRSSWFDCGVQGRDLGNEYDYRGQGTQVTVSS
notes: Monovalent Nanobody

IC50, inhibition of proliferation of the murine hybridoma cell line B9 (B9 assay, cell proliferation normalized) (recombinant human IL6 [4]): 1.86 nM
koff (recombinant human IL6 [1]): 0.000658 s⁻¹
B6: PMP21B4 (VHH)
VHH: QVQLVESGGGLVQAGDSLRVACAASGRTFSIDAMAWFRQAPGKEREFVSTMNWSTGATYYADSVKGRFTSSRDNAKSTSYLQMNSLKPEDTAVYYCAAARGLLIATDARGYDYWGQGTQVTVSS
notes: Monovalent Nanobody

IC50, inhibition of proliferation of the murine hybridoma cell line B9 (B9 assay, cell proliferation normalized) (recombinant human IL6 [4]): 0.05 nM
koff (recombinant human IL6 [1]): 0.000772 s⁻¹
B9: PMP21E7 (VHH)
VHH: AVQLVESGGGLVQAGGSLRLSSVVSGGTFSSYPIAWFRQPPGKEREFVAAISWRGGNTYYADSVKGRFTISRDNAKNTVYLQMNSLKPEDTAVYYSAAERAGVLLTKVPEGYDYWGQGTQVTVSS
notes: Monovalent Nanobody

IC50, inhibition of proliferation of the murine hybridoma cell line B9 (B9 assay, cell proliferation normalized) (recombinant human IL6 [4]): 0.008 nM
koff (recombinant human IL6 [1]): 3.66e-05 s⁻¹
B11: PMP13F12 (VHH)
VHH: AVQLVDSGGGLVQAGGSLRLSCAASGRTFSSSPMGWFRQAPGKEREFVAAISGRSGNTYYADSVKGRFTISRDNAKNTVYLQMNSLKPEDTAVYYCAAERVGLLLTVVAEGYDYWGQGTQVTVSS
notes: Monovalent Nanobody

IC50, inhibition of proliferation of the murine hybridoma cell line B9 (B9 assay, cell proliferation normalized) (recombinant human IL6 [4]): 2.58 nM
koff (recombinant human IL6 [1]): 0.00124 s⁻¹
B12: PMP21H1 (VHH)
VHH: QVQLVESGGGLVQTGGSLRLSCAASGSTFSKHHATGWFRQAPGKEREFVAALNWSGGNTYYTDSVKGRFTISRDNAQNTVYLQMNSLKPEDTAVYYCAAGSYVFYFTVRDQYDYWGQGTQVTVSS
notes: Monovalent Nanobody

koff (recombinant human IL6 [1]): 0.000545 s⁻¹
IC50, inhibition of proliferation of the murine hybridoma cell line B9 (B9 assay, cell proliferation normalized) (recombinant human IL6 [3]): 1.07 nM
B13: PMP6E10 (VHH)
VHH: QVKLEESGGGLVQAGGSLRLSCVVSGRTFSPYTIAWFRQAPGKEREFVTTIIGSDRSTDLDGDTYYADSVRGRFTISRNDAKNTVFLQMSSLKPEDTAVYYCALTGKGYVFTPNEYDYWGQGTQVTVSS
notes: Monovalent Nanobody

koff (recombinant human IL6 [1]): 0.00208 s⁻¹
IC50 (recombinant human IL6 [2]): 2.5 nM
IC50, inhibition of proliferation of the murine hybridoma cell line B9 (B9 assay, cell proliferation normalized) (recombinant human IL6 [3]): 0.421 nM
B14: PMP7G4 (VHH)
VHH: AVQLVESGGGLVQPGGSLRLSCAASGSIFSRLAMDWYRQAPGKQRELVASISRSGTTMAADSVKGRFTISRDNAENMVYLQMNSLKPEDTAVYVCMAFDGYSGSDYWGRGTQVTVSS
notes: Monovalent Nanobody
